The text below walks through data of patent US20230073007A1 (OPTOLANE TECHNOLOGIES, published 2023).

The labels stand for the following.
B1: switching binder of SEQ ID NO. 3 (L1) (peptide)
peptide: TYLEWYPQKPGQSPKLLIYK
modifications: also: fluorescence label in fluorescence assays, dye and place not given here
notes: also called PEPTIDE 3
B2: switching binder of SEQ ID NO. 4 (L2) (peptide)
peptide: VYYCFQGSHVPFTK
modifications: also: fluorescence label in fluorescence assays, dye and place not given here
notes: also called PEPTIDE 4
B3: switching binder of SEQ ID NO. 2 (H2) (peptide)
peptide: VYYCAREPTGTGIYFDVWGK
modifications: also: fluorescence label in fluorescence assays, dye and place not given here
notes: also called PEPTIDE 2

Assay [1] concerns the target T1, anti-HRP antibody.
T1 construct: also called anti-HRP antibody 10
Briefly: SPR, anti-HRP antibody immobilized on gold chip, peptide at 10 µM. (SPR reads the build-up and loss of mass on a sensor chip optically.)
Method: (§1) Carbodiimide/N-Hydroxysuccinimide (EDC/NHS, 0.4 M/0.1 M) was mixed in a 1:1 ratio and treated for 10 minutes to activate functional groups. […] Thereafter, it was used after blocking with an ethanolamine concentration of 1 M for 10 minutes. All of the switching binders 100 were treated by incubation for 30 minutes using two concentrations of 10 and 20 μM, respectively. The SPR signal can be measured as an average value by repeating the routine of measuring the SPR signal for 3 minutes while the solution is stopped after flowing 1% Tween-20 washing solution for 1 minute three times.

Assay [2] has as its target T1, anti-HRP antibody. As to the kind of experiment: SPR, anti-HRP antibody immobilized on gold chip, peptide at 20 µM.
Method: as §1
The target of assay [3] is T2, antibody 10 immobilized by the support 30 (FIG. 7A; antibody not identified).
T2 construct: also called the antibody 10
Briefly: fluorescence of labeled peptide vs peptide concentration on immobilized antibody (FIG. 7A).

In assay [4] the target is T3, CRP (UniProt P02741 19-224).
T3 construct: also called antigen CRP
T3 sequence (looked up): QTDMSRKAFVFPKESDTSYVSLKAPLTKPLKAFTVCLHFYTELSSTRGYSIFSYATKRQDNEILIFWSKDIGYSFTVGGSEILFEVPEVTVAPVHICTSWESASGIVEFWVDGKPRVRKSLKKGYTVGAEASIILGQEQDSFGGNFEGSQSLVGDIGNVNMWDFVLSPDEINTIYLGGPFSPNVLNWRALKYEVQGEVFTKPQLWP
Briefly: fluorescence of labelled peptide (20 µM) on protein coated at 100 µg/mL on a solid support.

For assay [5], the target named is protein A (UniProt P38507 37-477). The assay is described as above.
The target in assay [6] is B3. Briefly: FRET between the labelled peptides L1 and H2, L1 peptide concentration varied (linear axis, 0-10 µM).
Assay [7] deals with T2, antibody 10 immobilized by the support …. As to the kind of experiment: fluorescence of labelled peptide on an antibody fixed on a support, peptide concentration varied (log axis, 0.1-100 µM).
Assay [8] deals with T1, anti-HRP antibody. Briefly: fluorescence of labelled peptide (10 µM) on anti-HRP antibody fixed on a solid support, before (A) and after (B) HRP 10 µg/ml; C = fluorescence in the solution.
Method: (§2) 1 to 4 were each treated at a concentration of 10 μM (100 μl/well) for 2 hours. At this time, after measuring the fluorescence of the bottom, the antigen HRP as an analyte for an IgG antibody of rabbit was treated at a concentration of 10 μg/ml for 1 hour. […] 1 to 4 were each treated at a concentration of 20 μM (100 μl/well) for 2 hours. At this time, after measuring the fluorescence of the bottom, the antigen HCG as an analyte for an IgG antibody of a mouse was treated at a concentration of 100 μg/ml for 2 hours.
Assay [9] has as its target anti-HBsAg antibody. As to the kind of experiment: fluorescence of labelled peptide (20 µM) on anti-HBsAg antibody fixed on a solid support, before (A) and after (B) HBsAg 10 µg/ml; C = fluorescence in the solution.
In assay [10] the target is anti-CRP antibody. As to the kind of experiment: fluorescence of labelled peptide (20 µM) on anti-CRP antibody fixed on a solid support, before (A) and after (B) antigen 10 µg/ml (CRP by paragraph 170; paragraph 172 writes HRP); C = fluorescence in the solution.
Method: 1 to 4 were each treated at a concentration of 20 μM (100 μl/well) for 2 hours. At this time, after measuring the fluorescence of the bottom (A), the antigen HRP as an analyte for an IgG antibody of rabbit was treated at a concentration of 10 μg/ml for 1 hour. […] 1 to 4 were each treated at a concentration of 20 μM (100 μl/well) for 2 hours. At this time, after measuring the fluorescence of the bottom (A), the antigen HBsAg as an analyte for an IgG antibody of a goat was treated at a concentration of 10 μg/ml for 1 hour.
In assay [11] the target is anti-hCG antibody. Briefly: fluorescence of labelled peptide (20 µM) on anti-hCG antibody fixed on a solid support, before (A) and after (B) hCG 100 µg/ml; C = fluorescence in the solution.
Method: as §2
In assay [12] the target is B1. Briefly: FRET between the two peptides (FIG. 5E).
The target in assay [13] is B2. As to the kind of experiment: FRET between the labelled peptides H1 and L2, H1 peptide concentration varied (linear axis, 0-10 µM).

No end group written: not given here.

For the molecule B1, the figures for the SPR signal in [1] and in assay [2] were 25.3 RU and 40.4 RU, respectively. Also, the dissociation constant (Kd) (as a rule, the concentration at which binding is half-saturated) in [3] is 6.62 µM. In addition, the binding result in assay [4] is recorded as “no binding (tested: 20 µM)”; in assay [5], “no binding (tested: 20 µM)”; in assay [6], “binds”. In assay [7], the EC50 (read off the curve) (commonly the midpoint of the concentration-response curve) was about 6 µM. The “percent printed over the arrow from bar A to bar B (residual bound peptide after antigen; agrees with B as percent of A)” value in assay [8] came to 12.8%; in assay [9], 51.4%; in assay [10] it was 51.4%.

For B2, the figures for the SPR signal in [1] and in assay [2] were 125 RU and 418 RU, respectively. In addition, the Kd in assay [3] is 6.68 µM. In addition, the binding result in assay [4] and in assay [5] was “no binding (tested: 20 µM)” in each case. In addition, the “percent printed over the arrow from bar A to bar B (residual bound peptide after antigen; agrees with B as percent of A)” value in assay [8] was 25.5%; in assay [11], 9.3%; in assay [9] it was 55.1%; in [10], 55.1%.

B3: the figures for the binding result in assay [12] and in assay [4] were “binds” and “no binding (tested: 20 µM)”, respectively. Further, the values for the SPR signal in [1] and in assay [2] were 51.5 RU and 192 RU, respectively. The Kd in assay [3] was 19.4 µM. The “percent printed over the arrow from bar A to bar B (residual bound peptide after antigen; agrees with B as percent of A)” value in assay [8] was found to be 14.8%; in assay [11] it was 11.5%; in [9], 60.5%; in [10], 60.5%.

B4: switching binder of SEQ ID NO. 1 (H1) (peptide)
peptide: SYWIHWVKQRPGQGLEWIGE
modifications: also: fluorescence label in fluorescence assays, dye and place not given here
notes: also called PEPTIDE 1
On to B4, for which the SPR signal in assay [1] came out at 34.4 RU; in [2] it was 121 RU. This molecule came in with a Kd in [3] of 1.42 µM. The binding result in assay [4] is on record as “no binding (tested: 20 µM)”; in assay [5], “no binding (tested: 20 µM)”; in assay [13], “binds”. The “percent printed over the arrow from bar A to bar B (residual bound peptide after antigen; agrees with B as percent of A)” value in assay [8] worked out at 12.3%; in assay [11], 34.4%; in [9] it was 73.2%; in assay [10] it was 73.2%.
